Test results reported in the supplement of paper PMC9112550, “Optimization of the antimicrobial peptide Bac7 by deep mutational scanning” (BMC Biology, 2022).

system: Escherichia coli TOP10; assay: shrunken log2 fold change of peptide-encoding DNA abundance (4.5 h post-induction vs induction); higher = less antimicrobial activity (less host growth inhibition); conditions: time post-induction: 4.5 h; library: site-saturation at positions 5, 18, 19, 20
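Further: peptides expressed intracellularly from a pBAD plasmid library in pooled LB shake-flask culture, induced with 0.3% L-arabinose, DNA abundance read by NGS, three biological replicates, DESeq2 with apeglm shrinkage.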

| Sequence | shrunken log2 fold change |
| --- | --- |
| RRIRERPPRLPRPRPRPVHSPRP | -0.0947 |
| RRIRRRPPRLPRPRPRPSQFPRP | 0.0893 |
| RRIRVRPPRLPRPRPRPENAPRP | 0.173 |
| RRIRYRPPRLPRPRPRPNKTPRP | -0.258 |
| RRIRTRPPRLPRPRPRPDCTPRP | 0.0818 |
| RRIRWRPPRLPRPRPRPMHVPRP | 0.0255 |
| RRIRSRPPRLPRPRPRPFMSPRP | 0.00606 |
| RRIRTRPPRLPRPRPRPNELPRP | -0.0115 |
| RRIRARPPRLPRPRPRPKQHPRP | 0.312 |
| RRIRDRPPRLPRPRPRPVVVPRP | 0.328 |
| RRIRTRPPRLPRPRPRPSRSPRP | -0.0434 |
| RRIRNRPPRLPRPRPRPNQSPRP | -0.157 |
| RRIRWRPPRLPRPRPRPREGPRP | 1.28 |
| RRIRTRPPRLPRPRPRPNFAPRP | 0.00158 |
| RRIRLRPPRLPRPRPRPLLDPRP | 0.3 |
| RRIRERPPRLPRPRPRPMSWPRP | 0.13 |
| RRIRLRPPRLPRPRPRPAPVPRP | 0.23 |
| RRIRVRPPRLPRPRPRPPKCPRP | -0.173 |
| RRIRPRPPRLPRPRPRPETHPRP | 0.221 |
| RRIRIRPPRLPRPRPRPAFAPRP | 0.207 |
| RRIRKRPPRLPRPRPRPKRSPRP | 0.667 |
| RRIRPRPPRLPRPRPRPYHVPRP | -0.199 |
| RRIRVRPPRLPRPRPRPHEEPRP | 0.0138 |
| RRIRTRPPRLPRPRPRPIFEPRP | -0.113 |
| RRIRGRPPRLPRPRPRPCAIPRP | 2.08 |

| Sequence | shrunken log2 fold change |
| --- | --- |
| RRIRERPPRLPRPRPRPESMPRP | -0.46 |
| RRIRYRPPRLPRPRPRPQYSPRP | -1.71 |
| RRIRVRPPRLPRPRPRPAMQPRP | 0.193 |
| RRIRDRPPRLPRPRPRPMKLPRP | -0.0161 |
| RRIRLRPPRLPRPRPRPGCLPRP | -0.129 |
| RRIRWRPPRLPRPRPRPFGPPRP | 0.0591 |
| RRIRARPPRLPRPRPRPINLPRP | -0.376 |
| RRIRPRPPRLPRPRPRPWPWPRP | 0.0232 |
| RRIRCRPPRLPRPRPRPGYPPRP | -0.00859 |
| RRIRKRPPRLPRPRPRPENAPRP | 0.116 |
| RRIRCRPPRLPRPRPRPRWAPRP | 0.453 |
| RRIRTRPPRLPRPRPRPYIMPRP | -0.753 |
| RRIRQRPPRLPRPRPRPGTIPRP | -0.259 |
| RRIRDRPPRLPRPRPRPTWFPRP | 0.295 |
| RRIRGRPPRLPRPRPRPKDDPRP | 0.293 |
| RRIRQRPPRLPRPRPRPPRQPRP | 0.101 |
| RRIRWRPPRLPRPRPRPYCQPRP | -0.694 |
| RRIRHRPPRLPRPRPRPRTKPRP | 0.204 |
| RRIRNRPPRLPRPRPRPSAIPRP | -0.354 |
| RRIRTRPPRLPRPRPRPDVDPRP | -0.0342 |
| RRIRYRPPRLPRPRPRPLRAPRP | 0.669 |
| RRIRLRPPRLPRPRPRPFGIPRP | -0.255 |
| RRIRARPPRLPRPRPRPSWLPRP | 0.0254 |
| RRIRYRPPRLPRPRPRPMHSPRP | -1.02 |
| RRIRLRPPRLPRPRPRPRIMPRP | -0.333 |

| Sequence | shrunken log2 fold change |
| --- | --- |
| RRIRSRPPRLPRPRPRPFWWPRP | 0.309 |
| RRIRDRPPRLPRPRPRPMLGPRP | 0.015 |
| RRIRVRPPRLPRPRPRPHDRPRP | 0.068 |
| RRIRFRPPRLPRPRPRPDMRPRP | -0.000242 |
| RRIRVRPPRLPRPRPRPSNHPRP | -0.636 |
| RRIRRRPPRLPRPRPRPGFIPRP | -0.00928 |
| RRIRLRPPRLPRPRPRPFKIPRP | -0.00613 |
| RRIRERPPRLPRPRPRPYQQPRP | -0.228 |
| RRIRTRPPRLPRPRPRPKQLPRP | 0.23 |
| RRIRFRPPRLPRPRPRPAIYPRP | -0.999 |
| RRIRFRPPRLPRPRPRPMRAPRP | 1.02 |
| RRIRMRPPRLPRPRPRPHFVPRP | -0.025 |
| RRIRNRPPRLPRPRPRPSSFPRP | -0.127 |
| RRIRQRPPRLPRPRPRPLTGPRP | -0.0104 |
| RRIRGRPPRLPRPRPRPDGTPRP | 1.02 |
| RRIRFRPPRLPRPRPRPLETPRP | 0.105 |
| RRIRSRPPRLPRPRPRPPLSPRP | 0.125 |
| RRIRSRPPRLPRPRPRPITTPRP | -0.578 |
| RRIRMRPPRLPRPRPRPGVDPRP | 1.68 |
| RRIRARPPRLPRPRPRPINNPRP | -0.441 |
| RRIRTRPPRLPRPRPRPPEQPRP | 0.151 |
| RRIRYRPPRLPRPRPRPTIWPRP | -0.196 |
| RRIRIRPPRLPRPRPRPPHKPRP | -0.0846 |
| RRIRCRPPRLPRPRPRPPARPRP | 0.735 |
| RRIRARPPRLPRPRPRPWFDPRP | -0.178 |

| Sequence | shrunken log2 fold change |
| --- | --- |
| RRIRKRPPRLPRPRPRPHTKPRP | -0.0306 |
| RRIRNRPPRLPRPRPRPNSGPRP | -0.0638 |
| RRIRLRPPRLPRPRPRPQCGPRP | 0.0192 |
| RRIRSRPPRLPRPRPRPDFAPRP | -0.021 |
| RRIRFRPPRLPRPRPRPQTLPRP | -0.399 |
| RRIRMRPPRLPRPRPRPIWLPRP | 0.0637 |
| RRIRNRPPRLPRPRPRPREEPRP | -0.0547 |
| RRIRLRPPRLPRPRPRPRCGPRP | 0.0294 |
| RRIRRRPPRLPRPRPRPADIPRP | -0.0589 |
| RRIRKRPPRLPRPRPRPQYTPRP | -0.156 |
| RRIRQRPPRLPRPRPRPHRNPRP | 0.116 |
| RRIRYRPPRLPRPRPRPKPYPRP | -0.698 |
| RRIRCRPPRLPRPRPRPKECPRP | 0.103 |
| RRIRDRPPRLPRPRPRPEMNPRP | 0.128 |
| RRIRKRPPRLPRPRPRPWSLPRP | 0.0414 |
| RRIRERPPRLPRPRPRPRHNPRP | -0.137 |
| RRIRMRPPRLPRPRPRPRVYPRP | 0.0557 |
| RRIRVRPPRLPRPRPRPVFSPRP | -0.176 |
| RRIRIRPPRLPRPRPRPCMMPRP | -0.654 |
| RRIRVRPPRLPRPRPRPNDWPRP | -0.208 |
| RRIRPRPPRLPRPRPRPDCCPRP | -0.0125 |
| RRIRTRPPRLPRPRPRPVNKPRP | 0.0243 |
| RRIRSRPPRLPRPRPRPDCWPRP | 0.362 |
| RRIRMRPPRLPRPRPRPKWDPRP | 0.68 |
| RRIRKRPPRLPRPRPRPEKQPRP | -0.0582 |

| Sequence | shrunken log2 fold change |
| --- | --- |
| RRIRDRPPRLPRPRPRPNRTPRP | -0.477 |
| RRIRNRPPRLPRPRPRPMWFPRP | 0.0647 |
| RRIRRRPPRLPRPRPRPPFRPRP | 0.631 |
| RRIRGRPPRLPRPRPRPNDTPRP | 0.188 |
| RRIRLRPPRLPRPRPRPPQFPRP | -0.165 |
| RRIRMRPPRLPRPRPRPTTVPRP | 0.376 |
| RRIRMRPPRLPRPRPRPSWWPRP | 0.169 |
| RRIRCRPPRLPRPRPRPTDVPRP | -0.461 |
| RRIRARPPRLPRPRPRPEAMPRP | 0.805 |
| RRIRRRPPRLPRPRPRPHQRPRP | 0.14 |
| RRIRTRPPRLPRPRPRPMAWPRP | 0.114 |
| RRIRRRPPRLPRPRPRPQTLPRP | 0.101 |
| RRIRGRPPRLPRPRPRPQQQPRP | 0.843 |
| RRIRVRPPRLPRPRPRPSAKPRP | -0.354 |
| RRIRYRPPRLPRPRPRPYEAPRP | -0.336 |
| RRIRMRPPRLPRPRPRPYIRPRP | -0.13 |
| RRIRIRPPRLPRPRPRPQNIPRP | -1.22 |
| RRIRCRPPRLPRPRPRPDSTPRP | -0.235 |
| RRIRCRPPRLPRPRPRPEREPRP | 0.108 |
| RRIRIRPPRLPRPRPRPGPFPRP | -0.239 |
| RRIRWRPPRLPRPRPRPVWTPRP | 0.162 |
| RRIRERPPRLPRPRPRPLVPPRP | -0.182 |
| RRIRCRPPRLPRPRPRPNTDPRP | -0.27 |
| RRIRDRPPRLPRPRPRPIIKPRP | -0.0129 |
| RRIRMRPPRLPRPRPRPNMIPRP | -0.489 |

| Sequence | shrunken log2 fold change |
| --- | --- |
| RRIRYRPPRLPRPRPRPTMSPRP | -0.0772 |
| RRIRMRPPRLPRPRPRPQQIPRP | 0.0607 |
| RRIRWRPPRLPRPRPRPTNNPRP | 0.0375 |
| RRIRLRPPRLPRPRPRPNWIPRP | -0.583 |
| RRIRWRPPRLPRPRPRPMERPRP | -0.0173 |
| RRIRERPPRLPRPRPRPNKYPRP | 0.202 |
| RRIRRRPPRLPRPRPRPTQGPRP | 0.935 |
| RRIRRRPPRLPRPRPRPHPVPRP | 0.175 |
| RRIRNRPPRLPRPRPRPGCSPRP | 0.121 |
| RRIRHRPPRLPRPRPRPKSPPRP | -0.0893 |
| RRIRARPPRLPRPRPRPDMRPRP | 0.737 |
| RRIRMRPPRLPRPRPRPHPFPRP | 0.169 |
| RRIRYRPPRLPRPRPRPSQNPRP | -0.874 |
| RRIRHRPPRLPRPRPRPACVPRP | 0.0678 |
| RRIRWRPPRLPRPRPRPCNHPRP | -0.427 |
| RRIRNRPPRLPRPRPRPWSRPRP | 0.14 |
| RRIRGRPPRLPRPRPRPHYYPRP | -0.119 |
| RRIRSRPPRLPRPRPRPWPSPRP | 0.117 |
| RRIRMRPPRLPRPRPRPNFIPRP | -0.371 |
| RRIRWRPPRLPRPRPRPQGTPRP | 0.104 |
| RRIRRRPPRLPRPRPRPWDCPRP | -0.033 |
| RRIRQRPPRLPRPRPRPRGDPRP | 0.346 |
| RRIRIRPPRLPRPRPRPKHWPRP | 0.357 |
| RRIRMRPPRLPRPRPRPKFTPRP | 0.313 |
| RRIRIRPPRLPRPRPRPHPDPRP | -0.45 |
